Measurements from publication PMC12813162.

Target: phospholipase B D2
Test: IP-MS (UBQLN2 immunoprecipitation, mass spectrometry)
Settings: iMNs; read off a plot

- other: Student's T-test Difference: 0.47
Substance: Ubiquilin-2, wild type (from UniProt Q9UHD9) P497H; P506T; P509S; P525S
